B1: HDV Ribozyme (parent)
chain: GGCCGGCAUGGUCCCAGCCUCCUCGCUGGCGCCGGCUGGGCAACAUUCCGAGGGGACCGUCCCCUCGGUAAUGGCGAAUGGGACCCA

This data set covers variants of B1. The data set is described as follows: self-cleavage, relative activity (ratio to wild type); higher = more cleavage; co-transcriptional.
For GGCCGGCAUGGACCCAGCCUCCUCGCUGGCGCCGGCUGGGCAACAUUCCGAGGGGACCGUCCCCUCGGUAAUGGUGAAUGGGACCCA [U12A C75U], the self-cleavage worked out at 0.0361.
For GGCCGGCAUGGACCCAGCCUCCUCGCUGGCGCCGGCUGGGCAACAUUCCGAGGGGACCGUCCCCUCGGUAAUGGAGAAUGGGACCCA [U12A C75A] the value was 0.095; for GGCCGGCAUGGACCCAGCCUCCUCGCUGGCGCCGGCUGGGCAACAUUCCGAGGGGACCGUCCCCUCGGUAAUGGGGAAUGGGACCCA [U12A C75G], 0.277.
For GGCCGGCAUGGACCCAGCCUCCUCGCUGACGCCGGCUGGGCAACAUUCCGAGGGGACCGUCCCCUCGGUAAUGGCGAAUGGGACCCA [U12A G29A], the self-cleavage came out at 0.113.
Under GGCCGGCAUGGACCCAGCCUCCUCGCUGUCGCCGGCUGGGCAACAUUCCGAGGGGACCGUCCCCUCGGUAAUGGCGAAUGGGACCCA [U12A G29U] stands 0.113; under GGCCGGCAUGGACCCAGCCUCCUCGCUGGUGCCGGCUGGGCAACAUUCCGAGGGGACCGUCCCCUCGGUAAUGGCGAAUGGGACCCA [U12A C30U], 0.0739.
Under GGCCGGCAUGGACCCAGCCUCCUCGCUGGCGCCGGCUGGGCAACAUUCCAAGGGGACCGUCCCCUCGGUAAUGGCGAAUGGGACCCA [U12A G50A] stands 0.229; under GGCCGGCAUGGACCCAGCCUCCUCGCUGGCGCCGGCUGGGCAACAUUCCUAGGGGACCGUCCCCUCGGUAAUGGCGAAUGGGACCCA [U12A G50U], 0.767; under GGCCGGCAUGGACCCAGCCUCCUCGCUGGCGCCGGCUGGGCAACAUUCCGAUGGGACCGUCCCCUCGGUAAUGGCGAAUGGGACCCA [U12A G52U], 0.604.
Under GGCCGGCAUGGACCAAGCCUCCUCGCUGGCGCCGGCUGGGCAACAUUCCGAGGGGACCGUCCCCUCGGUAAUGGCGAAUGGGACCCA [U12A C15A] stands 0.19.
Consider GGCCGGCAUGGACCGAGCCUCCUCGCUGGCGCCGGCUGGGCAACAUUCCGAGGGGACCGUCCCCUCGGUAAUGGCGAAUGGGACCCA [U12A C15G], for which the self-cleavage amounted to 0.
Turning to GGCCGGCAUGGACCCAGCCUCCUCGCUGGCCCCGGCUGGGCAACAUUCCGAGGGGACCGUCCCCUCGGUAAUGGCGAAUGGGACCCA [U12A G31C], the self-cleavage is 0.
For GGCCGGCAUGGACCCAGCCUCCUCGCUGGCGCCGGCUGGGCAACAUACCGAGGGGACCGUCCCCUCGGUAAUGGCGAAUGGGACCCA [U12A U47A] the value was 0.302; for GGCCGGCAUGGCCCCAGCCUCCUCGCUGGCGCCGGCUGGGCAACCUUCCGAGGGGACCGUCCCCUCGGUAAUGGCGAAUGGGACCCA [U12C A45C], 0.0504; for GGCCGGCAUGGACCCAGCCUCCUCGCUCGCGCCGGCUGGGCAACAUUCCGAGGGGACCGUCCCCUCGGUAAUGGCGAAUGGGACCCA [U12A G28C], 0.
On to GGCCGGCAUGGACCCAGCCUCCUCGCUGGCGCCGGCUGGGCAACAUUCCGAGGGGAGCGUCCCCUCGGUAAUGGCGAAUGGGACCCA [U12A C57G], for which the self-cleavage came out at 0.208.
Turning to GGCCGGCAUGGACCCAGCCUCCUCGCUGGCGCCGGCUGGGGAACAUUCCGAGGGGACCGUCCCCUCGGUAAUGGCGAAUGGGACCCA [U12A C41G], the self-cleavage came out at 0.138.
Under GGCCGGCAUGUUCCCAGCCUCCUCGCUGGCGCCGGCUGGGCAACAUGCCGAGGGGACCGUCCCCUCGGUAAUGGCGAAUGGGACCCA [G11U U47G] stands 0.246.
For GGCCGGCAUGGACCCAGCCUCCUCGCUGGCGCCGGCUGGGCAACAUUCCGAGGGGACCGGCCCCUCGGUAAUGGCGAAUGGGACCCA [U12A U60G] the value was 0.
Turning to GGCCGGCAUGGACCCAGCCUCCUCGCUGGCGCCGGCUGGGCAACAUUCCGAGGGGACCGUCCCCUCGGUAAUGGCGAAAGGGACCCA [U12A U79A], the self-cleavage was determined as 0.0791.
For GGCCGGCAUGUUCCCAGCCUCCUCGCUGGCGCCGGCGGGGCAACAUUCCGAGGGGACCGUCCCCUCGGUAAUGGCGAAUGGGACCCA [G11U U37G] the value was 0.
In the case of GGCCGGCAUGUUCCCAGCCUCCUCGCUGGCGCCGGCAGGGCAACAUUCCGAGGGGACCGUCCCCUCGGUAAUGGCGAAUGGGACCCA [G11U U37A], the self-cleavage came out at 0.124.
Under GGCCGGCAUGGCCCCAGCCUCCUCGCUGGCGCCGGCUGGGCUACAUUCCGAGGGGACCGUCCCCUCGGUAAUGGCGAAUGGGACCCA [U12C A42U] stands 0; under GGCCGGCAUGGACCCAGCCUCCUCGCUGGCGCCGGCCGGGCAACAUUCCGAGGGGACCGUCCCCUCGGUAAUGGCGAAUGGGACCCA [U12A U37C], 0.277.
For GGCCGGCAUGGACCCAGCCUCGUCGCUGGCGCCGGCUGGGCAACAUUCCGAGGGGACCGUCCCCUCGGUAAUGGCGAAUGGGACCCA [U12A C22G], the self-cleavage is 0.0405.
For GGCCGGCAUGGACCCAGCCUCCUCGCUGGCGCCCGCUGGGCAACAUUCCGAGGGGACCGUCCCCUCGGUAAUGGCGAAUGGGACCCA [U12A G34C] the value was 0.208; for GGCCGGCAUGGACCCAGCCUCCUCGCUGGCGCCGGCUGGGCAACAUUCCGAGGGGACCGUCCCCUCGGUAAAGGCGAAUGGGACCCA [U12A U72A], 0.0831; for GGCCGGCAUGGACCCAGCCUCCUCACUGGCGCCGGCUGGGCAACAUUCCGAGGGGACCGUCCCCUCGGUAAUGGCGAAUGGGACCCA [U12A G25A], 0.108.
Regarding GGCCGGCAUGGACCCAGCCUCCUCGCUGGCGCCGGCUGGGCAACAUUCCGAGGGGACCGUCCCCUCGGUAAUGGCGAAUGGGUCCCA [U12A A83U], the self-cleavage is 0.674.
For GGCCGGCAUGGACCCAGCCUCCUCGCUGGCGCCGGCUGGGCAACAUUCCGAGGGGACCGUCCCCUCGGUAAUGGCGAAUGGGCCCCA [U12A A83C] the value was 0.35; for GGCCGGCAUGGACCCAGCCUCCUCGAUGGCGCCGGCUGGGCAACAUUCCGAGGGGACCGUCCCCUCGGUAAUGGCGAAUGGGACCCA [U12A C26A], 0.745.
On to GGCCGGCAUGGACCCAGCCUCCUCGUUGGCGCCGGCUGGGCAACAUUCCGAGGGGACCGUCCCCUCGGUAAUGGCGAAUGGGACCCA [U12A C26U], for which the self-cleavage came out at 0.982.

For the origin of these results see the RNAGym collection of RNA variant scans (doi:10.7554/elife.80360).
